Measurements as given in the supplement of paper PMC10724198.
± gives the standard deviation of the averaged measurements.

system: Saccharomyces cerevisiae; assay: protein stability index of tFT-peptide fusion (C-terminal peptide) (PSI (0-1 scale)); higher = more stable (slower turnover); settings: genetic background: wild type; temperature: 30 C
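Note: PSI is a weighted mean of sequencing reads over stability bins, variants kept only with over 10 reads, mCherry proximal and sfGFP distal, peptide attached via GGGS linker.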

Row | Sequence | protein stability index
1 | ATQPPPPPLPPI | 0.636 ± 0.052
2 | HIFAQSFLNIRI | 0.709 ± 0.04
3 | HYYYPSPPSSRH | 0.621 ± 0.042
4 | KGQKIIKNKNPK | 0.644 ± 0.038
5 | NKNVGLKKSEKS | 0.711 ± 0.019
6 | PLRESSTRPSLL | 0.684 ± 0.055
7 | WSLGLVGRGFWG | 0.73 ± 0.11
8 | MLYNQDIGQELL | 0.652 ± 0.058
9 | GLACSRYVLFWK | 0.562 ± 0.023
10 | FHYSRSCVLEQL | 0.698 ± 0.074
11 | VGRWGGVSLGGR | 0.715 ± 0.09
12 | PPPPPPAPPSPA | 0.726 ± 0.051
13 | WFHSANLFLSLS | 0.705 ± 0.077
14 | LLPPSPFTPPPF | 0.742 ± 0.076
15 | PERPPVARATRP | 0.718 ± 0.049
16 | SRYGKVIRKKHE | 0.756 ± 0.021
17 | RSGPLFPLSCPP | 0.767 ± 0.026
18 | LLSPHPSCRPTP | 0.584 ± 0.037
19 | SERNENKTGKVQ | 0.747 ± 0.11
20 | NFQLIKKHSKNN | 0.63552 ± 0.00029
21 | PPLFPPPTLPEL | 0.738 ± 0.02
22 | VKRPGVGRSSTA | 0.731 ± 0.051
23 | LPLSTLGPLARL | 0.725 ± 0.18
24 | ARKRRRRGHDTE | 0.725 ± 0.19
25 | MKTSIQHNRNPG | 0.659 ± 0.0096
26 | KCPSLVHSNSTG | 0.71 ± 0.016

Row | Sequence | protein stability index
27 | RCAIMGRGGIVT | 0.686 ± 0.018
28 | LLLLFLCSPSSL | 0.496 ± 0.041
29 | GWGGGGGAWKGV | 0.736 ± 0.072
30 | VYSLQSFSVRRY | 0.704 ± 0.018
31 | CRRRNRLLLFRK | 0.697 ± 0.037
32 | PGPPPPPPPLYP | 0.6947 ± 0.0063
33 | PPPPPAPLPSSL | 0.671 ± 0.02
34 | PWQSSPFTPALT | 0.649 ± 0.057
35 | LLHPFPPLCRHP | 0.716 ± 0.018
36 | GNVLIRFSCSDS | 0.754 ± 0.05
37 | GLDVFFPMDRQA | 0.764 ± 0.08
38 | TWGCAGAIRSVG | 0.689 ± 0.094
39 | AFYERLQEWIRA | 0.613 ± 0.014
40 | SRPSPPPRRPLG | 0.759 ± 0.067
41 | TGREWCFERGCW | 0.842 ± 0.14
42 | NPHLTLPVHPPH | 0.709 ± 0.026
43 | LFAAPARTSAPC | 0.779 ± 0.055
44 | RGPSGARRQPGL | 0.6658 ± 0.0044
45 | RGGGFIGSFFMG | 0.751 ± 0.15
46 | GLAYGICYRVVL | 0.637 ± 0.011
47 | VLVRYSAGTGGT | 0.605 ± 0.013
48 | KIEAHKKYKKHQ | 0.726 ± 0.026
49 | IGFGPVSCARLF | 0.679 ± 0.11
50 | DLRPSLPHPTQP | 0.673 ± 0.037
51 | RHLPPAPAPRFI | 0.717 ± 0.2
52 | VPSCWVSFPPSP | 0.732 ± 0.04

Row | Sequence | protein stability index
53 | SRRAPPPLYLPL | 0.699 ± 0.067
54 | PPAPPPLPPPPP | 0.729 ± 0.0092
55 | TPFLLHPPSPDL | 0.607 ± 0.051
56 | AKSKVAGNVGGD | 0.669 ± 0.017
57 | AELSPGLSVLLL | 0.705 ± 0.013
58 | LSRPPPPLLPSV | 0.749 ± 0.03
59 | LPLVLSPSPPHP | 0.711 ± 0.061
60 | GAAARSGSRKEL | 0.631 ± 0.029
61 | SSRPPPVLTPAR | 0.745 ± 0.044
62 | TATYCFNALRRS | 0.72 ± 0.052
63 | LGQWGGGLSGSV | 0.685 ± 0.033
64 | RPRGRGRSRGDT | 0.633 ± 0.037
65 | GGRGGRGQGWYR | 0.661 ± 0.007
66 | ETVLQVRRRVVR | 0.6553 ± 0.0028
67 | VCPPPIGYHSYQ | 0.6674 ± 0.0019
68 | FFLPLAYSSGSN | 0.659 ± 0.043
69 | GSGGVGVTSGGK | 0.682 ± 0.056
70 | RKDEKRGTVIIA | 0.62 ± 0.021
71 | TLDTICNTTKQR | 0.675 ± 0.047
72 | VSLCYGGGFWGG | 0.722 ± 0.014
73 | RGWGGGRVAREC | 0.657 ± 0.026
74 | VVSVQHEVIIFL | 0.611 ± 0.05
75 | VLGLLFLLCVFM | 0.6436 ± 0.0038
76 | IGARLMVGASRK | 0.775 ± 0.16
77 | WAFSAFDHCVAS | 0.665 ± 0.058
78 | AILTLVQEVRKY | 0.6203 ± 0.00088

Row | Sequence | protein stability index
79 | TLRILTRRGLVP | 0.703 ± 0.12
80 | GGAVSRVGEGGR | 0.785 ± 0.02
81 | AGEDRGSRWVCI | 0.699 ± 0.032
82 | SRPISCSLPCCV | 0.646 ± 0.054
83 | SKRYREKIVRNK | 0.677 ± 0.04
84 | DRQGMIGLKYVK | 0.776 ± 0.11
85 | CGVGWGMGEGWR | 0.6956 ± 0.00081
86 | PSRSFLPTHCSL | 0.666 ± 0.017
87 | PPPPPPLSRTST | 0.723 ± 0.082
88 | PNASPNPHRSNK | 0.708 ± 0.062
89 | LRLIPPLTTFDY | 0.645 ± 0.098
90 | GKERIYVYGWSK | 0.686 ± 0.016
91 | DRFPGLILVSFP | 0.73 ± 0.05
92 | QNHKSYQTQDHN | 0.616 ± 0.051
93 | PAAPGLDLRHDP | 0.623 ± 0.037
94 | PPPPSPRPRPAP | 0.657 ± 0.025
95 | PPPTSPPRPASP | 0.697 ± 0.059
96 | LPGPICSPPTGS | 0.693 ± 0.011
97 | KVLRKQRLKGRE | 0.5238 ± 0.0015
98 | LRTRKKTIDHHN | 0.663 ± 0.013
99 | LLYSTRRCIFEF | 0.645 ± 0.034
100 | FGPDFCVRSHLS | 0.719 ± 0.03
101 | QAKNNKKQKGWQ | 0.646 ± 0.046
102 | DKKKNKDQKEKI | 0.731 ± 0.029
103 | PLPYSPPHPVPP | 0.701 ± 0.029
104 | VFSALAYVVFKG | 0.598 ± 0.032

Row | Sequence | protein stability index
105 | GCCGGGGVEGLE | 0.695 ± 0.022
106 | FLVWGLGWLCCV | 0.594 ± 0.025
107 | NTIPRVTPDKSQ | 0.642 ± 0.093
108 | GDKGLRPNMGLV | 0.645 ± 0.0099
109 | SAMSFTSRGVRH | 0.698 ± 0.011
110 | IYPPALLSSSFL | 0.709 ± 0.093
111 | GDGRCAVPFWWG | 0.805 ± 0.074
112 | PFPPTPSPAPPL | 0.7097 ± 0.0025
113 | ESDLNDLGQNLN | 0.674 ± 0.058
114 | PPPHPLALPPPP | 0.74 ± 0.03
115 | PHSPSHTPVYPR | 0.694 ± 0.011
116 | RVSLSHPDRCAG | 0.7264 ± 0.0025
117 | QEVKLAPEHRLR | 0.675 ± 0.013
118 | VVFTSISFGLFV | 0.572 ± 0.044
119 | GGGVGGGVGQRG | 0.705 ± 0.086
120 | GGDGGLVMGGGN | 0.684 ± 0.018
121 | LLFLPRPPVCSR | 0.649 ± 0.11
122 | MKKVQENIKGKH | 0.717 ± 0.11
123 | DLWDDVAYVIVA | 0.619 ± 0.039
124 | AVWSLMRCREFV | 0.652 ± 0.028
125 | TISEGMSGRRRR | 0.759 ± 0.013
126 | PHFLLLEDRPQT | 0.705 ± 0.02
127 | LPPPPSPESPLS | 0.722 ± 0.045
128 | SGRVRPNSRASP | 0.698 ± 0.073
129 | RVGQINKFLPLE | 0.682 ± 0.071
130 | PPRPPLPRPLPP | 0.657 ± 0.041

Row | Sequence | protein stability index
131 | PPPRPRPPPRPP | 0.581 ± 0.021
132 | PQSSLPPLSTSS | 0.686 ± 0.011
133 | AADNTGRNKGPQ | 0.685 ± 0.0095
134 | RDRGWSRGRQVH | 0.662 ± 0.015
135 | PRPTPPHPPITR | 0.824 ± 0.027
136 | QTLKKRRNRSRG | 0.684 ± 0.041
137 | PSRYHLFLPSPA | 0.73 ± 0.055
138 | AHLPSPRPRPPP | 0.764 ± 0.013
139 | GGSDQLGDSVAG | 0.647 ± 0.057
140 | RAGHREIARQKG | 0.6307 ± 0.0013
141 | RLVCLVTQSVPH | 0.613 ± 0.021
142 | RLAPWATGVRMW | 0.6759 ± 0.0016
143 | LPVDPPLGGHPT | 0.655 ± 0.03
144 | SFACVYVPPALF | 0.712 ± 0.025
145 | TGREGARVGIGR | 0.687 ± 0.01
146 | IVWCAINYLFRS | 0.63 ± 0.054
147 | GSGLVTRTSLDY | 0.726 ± 0.045
148 | RYRRQESYVIIK | 0.766 ± 0.13
149 | SWPSLDLVSRMQ | 0.676 ± 0.038
150 | SVSPLSSSTLTA | 0.65 ± 0.019
151 | VYMWFVDSPGGS | 0.682 ± 0.037
152 | TYGRPICFSFKR | 0.701 ± 0.049
153 | RVESRFSGTDSF | 0.708 ± 0.041
154 | LPLSPRCFSLLG | 0.6774 ± 0.0023
155 | GRRKGGRKAREC | 0.588 ± 0.017
156 | WLRCGCVKWAGG | 0.657 ± 0.013

Row | Sequence | protein stability index
157 | LLESFCVSWCSW | 0.617 ± 0.012
158 | HVRARLVVHQRA | 0.631 ± 0.047
159 | PHNTPRPELLPP | 0.613 ± 0.11
160 | STAEFLDFKMTT | 0.691 ± 0.05
161 | PTSPPPPPPPPP | 0.657 ± 0.084
162 | THSPSPTTAPIP | 0.688 ± 0.011
163 | FGSRTFVTIAAG | 0.57 ± 0.056
164 | TWPSGRASGHVG | 0.702 ± 0.0079
165 | AISCPFIRFSSL | 0.614 ± 0.0091
166 | HLPSPPPPPSRL | 0.744 ± 0.031
167 | PTHSRQPPYLSL | 0.684 ± 0.027
168 | LRARSSKPPYWL | 0.737 ± 0.028
169 | SGPLPCPPLPAP | 0.676 ± 0.016
170 | LRLLRPVPPRVF | 0.5405 ± 0.0019
171 | RRPPPPSPPPPP | 0.7095 ± 0.0062
172 | CFLLSSFSLPRS | 0.705 ± 0.0078
173 | CKGIGLGGGVVS | 0.599 ± 0.033
174 | IRCGQFSVVSES | 0.6 ± 0.028
175 | SRSAQAGFKVFN | 0.712 ± 0.2
176 | PSFVRTVPSPCP | 0.658 ± 0.011
177 | PPLGPRPPSNST | 0.6522 ± 0.0058
178 | GGWLGGLGCFMV | 0.708 ± 0.046
179 | GYVLVLGVKGGL | 0.648 ± 0.032
180 | CFRGGLLSESVV | 0.6714 ± 0.0011
181 | QVFKHVKHIEFD | 0.725 ± 0.062
182 | RSCPGSWFRLSV | 0.699 ± 0.12

Row | Sequence | protein stability index
183 | WGRRVRVEGVVL | 0.613 ± 0.022
184 | PPPPPRAPSLLA | 0.704 ± 0.03
185 | VIVLVQDVALQL | 0.7 ± 0.065
186 | PPRPLAPSPTLF | 0.679 ± 0.021
187 | PSLSPSLLRFNL | 0.66 ± 0.015
188 | FTLCPARALSLC | 0.552 ± 0.024
189 | WGVVAVSGRLGA | 0.78 ± 0.012
190 | SWAGGRWRRVPV | 0.658 ± 0.04
191 | CPALPPAPLSPL | 0.725 ± 0.018
192 | VFMVLLLGFRRF | 0.549 ± 0.011
193 | TSLSVGVFSSPV | 0.647 ± 0.02
194 | LQHGKSRCAFRK | 0.652 ± 0.026
195 | CWSSPSFSLLFP | 0.779 ± 0.028
196 | CRPAASCLPPER | 0.6684 ± 0.0066
197 | QPPAKSRETKYR | 0.741 ± 0.031
198 | YDRVVHASSTMW | 0.707 ± 0.013
199 | SQGDVLLFMFLW | 0.548 ± 0.033
200 | GSSMLFIEQEVE | 0.683 ± 0.028
201 | LDGAGFLLSWYH | 0.749 ± 0.013
202 | DCPLPPRYRAPL | 0.691 ± 0.043
